Assay results published in patent US10792332B2, “Anti-infective properties of antifreeze protein” (priority 2013, dated 2020).
Values joined by “and” are separate entries in the source; they are usually repeats but may differ in a detail not shown here. Equal entries are not always repeated. “Also recorded” adds a separate entry of the source. Ends that are not written are not given here.

What was measured:
[1] = system: S. aureus; experiment: Static biofilm assay (safranin stain); type: cell-based, Staphylococcus aureus; details: preliminary data
Description: Biofilm assays were performed as described^38. Briefly, planktonic overnight cultures of S. aureus were diluted in glucose-supplemented tryptic soy broth or brain-heart-infusion broth (1% glucose; TSB/G or BHI/G) to OD600=0.015 and distributed into 96 well plates (Corning, NC). After an 18 h incubation at 37° C. bacterial growth in each well was confirmed by the measurement of OD600 using a spectrophotometer (BioTek, VT). The supernatant was discarded and the wells were washed with water twice. Bacteria associated with the well surface were dried and stained with safranin. The dye was then dissolved in 33% acetid acid and quantified at OD415 nm using a spectrophotometer (BioTek, VT). Bacterial attachment to catheter materials pre-incubated with peptides was investigated. Vialon™ catheters (BD Biosciences, NJ) were incubated for 18 h in 0.1 mg/ml peptides dissolved in PBS, washed with PBS and incubated in bacterial suspensions for 24 h. Following removal of non-adherent bacteria with repeated washing, adherent bacteria and biofilms were dissociated using sonication in PBS. Bacterial titers were quantified by plating serial dilutions on agar plates and were calculated per as CFU per catheter.

[2] = system: S. aureus; experiment: Bacterial growth in vitro (OD600); type: cell-based, Staphylococcus aureus; details: 0.1 mg/ml in BHI/G, 37° C., SA113 or USA300 JE2
Description: A stationary culture of S. aureus was diluted to OD600=0.01 in BHI medium and supplemented with 0.2 mg/ml recombinant IAFGP-GST, BSA or PBS as control. Bacterial growth was measured over time at OD600 using a spectrophotometer. Growth curves from 5 independent experiments were pooled±SEM.
A stationary culture of S. aureus SA113 or USA300 JE2 was diluted in BHI/G to OD600=0.01 supplemented with 0.1 mg/ml IAFGP-GST, GST, P1, sP1 or media alone. Following static incubation at 37° C. for 24 h bacterial density was measured at OD600 using a spectrophotometer.

[3] = Murine subcutaneous catheter implant model; type: in vivo, C57Bl/6 mice; details: under the conditions used
Description: FIG. 5A depicts bacterial attachment to intravenous catheters that had been incubated in PBS, GST, GST-IAFGP, P2 and P21c before transferring into S. aureus SA113 suspensions. Bacterial attachment was quantified after sonication by plating serial dilutions. Data were pooled from 3 independent experiments (One-Way-ANOVA; *: p<0.05). FIG. 5B presents bacterial attachment to intravenous catheters that had been incubated in PBS, P1 or sP1 and implanted subcutaneously on the dorsal flanks of C57Bl/6 mice. 72 hrs after catheter inoculation with 5×10^5 CFU S. aureus SA113 the catheters were removed and the attached bacteria were quantified by plating serial dilutions. […]
Seven days after catheter inoculation with S. aureus SA113, the catheters were removed, and the attached bacteria were quantified by plating serial dilutions.
(§1) Cecal ligation and puncture surgery was performed as described^26,41 Mice were anesthesized using isoflurane inhalation and the cecum was exteriorized through a peritoneal midline incision. […] Body surface temperature was measured dorsally using an infrared thermometer. A retro-orbital blood sample was taken daily and the cytokine levels of TNF-α, IL-6, IL12b and MCP-1 were measured using enzyme-linked immunosorbent assay (ELISA) kits (eBiosciences, San Diego, Calif.). […] The number of attached bacteria was determined by plating serial dilutions on agar plates.

[4] = system: S. aureus SA113; experiment: Bacterial attachment to pre-incubated intravenous catheters in vitro; type: cell-based, Staphylococcus aureus
Description: FIG. 5A depicts bacterial attachment to intravenous catheters that had been incubated in PBS, GST, GST-IAFGP, P2 and P21c before transferring into S. aureus SA113 suspensions. Bacterial attachment was quantified after sonication by plating serial dilutions. Data were pooled from 3 independent experiments (One-Way-ANOVA; *: p<0.05). FIG. 5B presents bacterial attachment to intravenous catheters that had been incubated in PBS, P1 or sP1 and implanted subcutaneously on the dorsal flanks of C57Bl/6 mice. 72 hrs after catheter inoculation with 5×10^5 CFU S. aureus SA113 the catheters were removed and the attached bacteria were quantified by plating serial dilutions. CFU data were pooled from 3 independent experiments (One-Way-ANOVA with Tukey's post-test; **: p<0.01). […] S. aureus are indicated by black triangles, biofilm matrix are indicated by empty triangles.
Biofilm assays were performed as described^38. Briefly, planktonic overnight cultures of S. aureus were diluted in glucose-supplemented tryptic soy broth or brain-heart-infusion broth (1% glucose; TSB/G or BHI/G) to OD600=0.015 and distributed into 96 well plates (Corning, NC). […] The dye was then dissolved in 33% acetid acid and quantified at OD415 nm using a spectrophotometer (BioTek, VT). […] Bacterial titers were quantified by plating serial dilutions on agar plates and were calculated per as CFU per catheter.

[5] = system: S. aureus SA113; experiment: S. aureus microinjection challenge of iafgp-expressing fruit flies; type: in vivo, D. melanogaster
Description: FIGS. 3A-3E present transgenic expression of iafgp in fruit flies and susceptibility of transgenic flies to S. aureus challenge in vivo. […] Survival data were pooled from 6 independent experiments (Log-rank test; p<0.001). […] Bacterial colonization of individual flies was determined by plating serial dilutions. Data was pooled from 3 independent experiments (One-Way-ANOVA with Tukey's post-test; ***: p<0.001; **: p<0.01; *: p<0.05). FIG. 3C presents PNAG production in iafgp-transgenic and control flies challenged with S. aureus SA113. PNAG levels of pools of 5 flies were assessed at different time points by immunoblot. Average signal intensities of 3 independent experiments±SEM with representative immunoblot images below are shown (Two-Way-ANOVA with Sidak's post test;[…]). FIG. 3D presents PNAG production in iafgp-transgenic and control flies challenged with S. aureus SA113. Paraffin sections of whole flies were stained for bacteria and PNAG. Black triangles point to bacteria, empty triangles indicate PNAG staining. […] Survival data were pooled from 4 independent experiments (Log-rank test; not significant).
Iafgp-expressing and mCherry-expressing flies were generated as described^13. D. melanogaster flies were maintained using standard procedures^39. The fly colony was sustained at 21-23° C. Following infection, flies were incubated at 29° C. to increase UAS-mediated transgene expression. Five to 9 day old females were used for experiments. Twenty to 30 flies per vial were infected by microinjection as reviewed in^40 and survival was monitored. Microinjection was performed into the thorax below the wing using a Nanojet microinjector (Drummond Scientific, PA). Bacteria in stationary growth phase were diluted in PBS to OD600=0.01 or OD600=0.1 and 9.2 nl were injected, corresponding to an infectious dose of 50-100 to 500-1000 CFU per fly respectively. For CFU analysis individual flies were homogenized in […] using a bullet blender (Nextadvance, NY) and steel beads. Serial dilutions were plated on brain-heart-infusion agar plates and incubated at 37° C. overnight. Endogenous fly bacteria only grew to pinprick-size overnight, allowing visual distinction of the fast-growing bacteria used for infection (data not shown). mRNA was isolated from individual flies homogenized in […] using RNAeasy kit (Qiagen, Hilden, Germany). Following DNAse digestion with Turbo DNA-free Kit (Ambion/Life Technologies, NY) RNA was reverse-transcribed with iScript cDNA synthesis kit (BioRad, CA) and gene expression was quantified by qRT-PCR using iQ SYBR Green Supermix (BioRad, CA).

[6] = system: Listeria monocytogenes; experiment: Needle prick infection of iafgp-expressing fruit flies; type: in vivo, D. melanogaster
From the text: (§2) A 0.6 μm tungsten needle was dipped into a 1:10 diluted stationary culture of L. monocytogenes and flies were pricked in the right lateral side of the thorax. Fly survival was monitored visually over the course of infection. Uninfected controls (n.i.; n=40) were pricked with a needle dipped into PBS. Data were pooled from 2 independent experiments (Log-rank test; p<0.005). […] Groups of 20-25 flies were transferred into vials containing only a piece of absorbing tissue. Stationary bacterial cultures, resuspended in 4% sucrose and diluted 2-fold were used to soak the paper, controls received only sucrose solution. Every 3 days the flies were transferred into new vials with freshly soaked tissue, and bacterial survival was measured. […] Uninfected controls (n.i.; n=40) were housed in vials with 4% sucrose. Data were pooled from 2 independent experiments (Log-rank test; p<0.001/p<0.001).

[7] = system: Pseudomonas entomophila; experiment: Oral infection of iafgp-expressing fruit flies; type: in vivo, D. melanogaster
From the text: as §2

[8] = system: Serratia marcescens; experiment: Oral infection of iafgp-expressing fruit flies; type: in vivo, D. melanogaster
From the text: as §2

[9] = system: polymicrobial sepsis; experiment: Cecal ligation and puncture (polymicrobial sepsis) in iafgp-transgenic mice; type: in vivo
From the text: Iafgp was constitutively expressed under control of the chicken β-actin promoter in an iafgp-transgenic mouse line. The promoter region was excised from pβAct-CAT 9 (ATCC, VA) using XhoI and HindIII and subcloned into the pEGFP-1 vector (Clontech, CA). EGFP was removed from pβAct-EGFP-1 by digestion with BamHI and NotI resulting in pβAct-1. Iafgp was then PCR-amplified using oligomers iafgp BamHI F and iafgp NotI R, introducing the corresponding restriction sites. The PCR fragment was digested and cloned into linearized pβAct-1, resulting in pβAct-iafgp. For microinjection, the transgene fragment containing the β-actin promoter and iafgp gene was excised from pβAct-iafgp by digestion with XhoI and AflII restriction enzymes and gel purified. Microinjection was performed in […] (C57BL/6×C3H) and mice were genotyped by PCR analysis of tail biopsies using IAFP4qRTF and IAFP4qRTR. mRNA expression of iafgp was confirmed in multiple tissues using the same primers for qRT-PCR. Transgenic iafgp-expressing mice were backcrossed for 8 generations to C57Bl/6 mice (Charles River, Mass.). Heterozygous experimental mice of 6-12 weeks were age- and sex-matched with wild-type littermates and wild-type C57Bl/6 as control. All mice were housed at 20-22° C. with water and food ad libitum. Animal handling was performed according to protocols approved by the Yale animal care and use committee.
as §1, with “incision. Seventy-five percent of the cecum was ligated and punctured through and through with a 21G hypodermic needle.” for “incision.”

[10] = system: S. aureus USA300 JE2; experiment: Intranasal MRSA challenge of iafgp-transgenic mice; type: in vivo; details: iafgp-transgenic mice vs controls
Description: Iafgp-expressing mice were infected with USA300 JE2. 1.2×10^8 CFU logarithmic growth phase bacteria per mouse were applied intranasally in 50 μl PBS and murine survival was monitored.

[11] = iafgp-expressing flies vs controls

Molecule: PARKARAATPATPATAATPATAAT (listed as Ixodes scapularis) [P0]
- anti-biofilm activity [1]: anti-biofilm activity has been identified

Molecule: AAAAATATAAARRAAAAPTTAKTT [sP1, P2 randomized, soluble, negative control]
- bacterial density/viability at OD600 after 24 h static incubation [2]: Neither proteins nor peptides affected bacterial growth

Molecule: PARKARAATAATAATAATAATAAT [P1]
- toxicity in vivo [3]: no signs of toxicity

B1: IAFGP: Ixodes scapularis anti-freeze glycoprotein, 251 amino acids, SEQ ID NO: 3; also expressed transgenically in flies and mice (protein, listed as Ixodes scapularis)
chain: MTTLLRLTILIVAVAGVLGSSKRAARAATPATAATPATPATAATPAIAATPATAATPATAATPARKARAATPATPATPATAATPATAATPARKARAATAATPATPATAATPARKARAATPATPATAATPATAATPARKARAATPATPATAATPATAATPARKARAATPATPATAATPATAATPARKARAATPATPATAATAATPARKARAATAATPATPATAATPARKARAATPATAATAATPATAATAAA
- bacterial attachment / biofilm formation on intravenous catheters in vitro [4]: altered bacterial attachment; also recorded: reduced biofilm formation
- lowering of catheter-associated bacteria in comparison to untreated controls ([4]; catheters incubated in protein or peptide solution, then S. aureus suspension): 9 fold
- pathogen titers in flies over the course of infection ([5]; iafgp-expressing flies): remained stable over the course of infection
- PNAG quantity during S. aureus infection of flies [5, 11]: reduced
- fly survival after S. aureus microinjection [5, 11]: enhanced survival
- effect of IAFGP on flies challenged with PNAG-deficient S. aureus ΔicaADBC mutant ([5]; ΔicaADBC mutant): completely abrogated
- fly survival after L. monocytogenes infection [6]: increased fly survival
- fly survival after P. entomophila infection [7]: increased fly survival
- fly survival after S. marcescens infection [8]: increased fly survival
- general health and activity (disease score) ([9]; 24-36 h after surgery, transgenic vs control mice): significantly better general health and activity
- extended (average) survival compared to controls after CLP ([9]; iafgp-expressing mice): 40% and 35%
- hypothermia and serum cytokine release of MCP-1, TNF-α, IL6 and IL12p40 ([9]; iafgp-expressing mice vs controls): delayed
- survival after intranasal MRSA challenge [10]: increased survival; also recorded: enhanced survival
